In patent US20200316195A1 (OSSIANIX, published 2020):

Experiments:
[1] = biological target: T1, recombinant mouse transferrin receptor 1 (rmTfR-1) (mouse, UniProt Q62351 89-763); assay: competitive phage ELISA
T1 construct: extracellular domain; also called mouse TfR-1

[2] = biological target: T2, recombinant human transferrin receptor 1 (rhTfR-1) (human, UniProt P02786 89-760); assay: competitive phage ELISA
T2 construct: extracellular domain; also called human TfR-1; human TfR1

[3] = biological target: T1, recombinant mouse transferrin receptor …; assay: EC50 on recombinant target, presumably ELISA as in Example 8B
Protocol: (§1) To test whether the bispecific molecules retained binding to both transferrin receptor and BACE1, the purified proteins were titrated against either hTfR, mTfR, or BACE1 adsorbed to the solid phase of an ELISA plate. Binding was measured with an […] anti-human-Fc antibody (Example 8; Table 3).
(§2) To test whether the bispecific molecules retained binding to both transferrin receptor and BACE1, the purified proteins were titrated against hTfR, mTfR, or BACE1 adsorbed to the solid phase of an ELISA plate. Binding was measured with an HRP-labelled anti-human-Fc antibody.

[4] = biological target: T1, recombinant mouse transferrin receptor …; assay: ELISA; target adsorbed to plate; HRP anti-human-Fc detection
Protocol: as §1, §2

[5] = biological target: T3, human transferrin receptor 2 (hTfR-2) (human, UniProt Q9UP52 105-801, limits assumed); assay: ELISA on plate-coated hTfR2 (Example 15, as in Example 1D) [panel hTfR2]
T3 construct: also called human TfR-2
T3 sequence (looked up): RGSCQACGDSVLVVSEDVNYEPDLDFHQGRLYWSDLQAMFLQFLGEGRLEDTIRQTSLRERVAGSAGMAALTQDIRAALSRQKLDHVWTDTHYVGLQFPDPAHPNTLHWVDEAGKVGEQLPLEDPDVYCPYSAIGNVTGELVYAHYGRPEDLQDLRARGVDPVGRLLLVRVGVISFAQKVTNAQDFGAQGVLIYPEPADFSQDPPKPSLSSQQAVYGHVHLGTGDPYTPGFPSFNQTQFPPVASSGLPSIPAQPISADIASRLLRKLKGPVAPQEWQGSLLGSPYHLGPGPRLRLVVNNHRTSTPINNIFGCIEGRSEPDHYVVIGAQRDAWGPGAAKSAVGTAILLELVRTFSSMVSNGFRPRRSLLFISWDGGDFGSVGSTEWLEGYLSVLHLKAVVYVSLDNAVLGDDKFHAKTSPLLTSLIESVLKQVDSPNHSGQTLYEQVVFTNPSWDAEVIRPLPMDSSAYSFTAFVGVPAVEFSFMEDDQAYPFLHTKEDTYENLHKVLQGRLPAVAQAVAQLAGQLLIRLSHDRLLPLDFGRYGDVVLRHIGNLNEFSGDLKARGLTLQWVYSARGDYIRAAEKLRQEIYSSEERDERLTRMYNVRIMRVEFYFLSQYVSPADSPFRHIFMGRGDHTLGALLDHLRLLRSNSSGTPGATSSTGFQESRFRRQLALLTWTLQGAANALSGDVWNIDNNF
Protocol: (§3) The binding specificity of H01-Fc and F02-Fc for hTfR-1 and hTfR-2 were determined by an ELISA as described in Example 1D. Anti-TfR-2 was used as a positive control for TfR-2 binding. […] Both H01-Fc […] F02 Fc bound hTfR-1 with high specificity (˜100 nM) and neither bound hTfR-2 (FIG. 18).

[6] = biological target: T2, recombinant human transferrin receptor …; assay: ELISA on plate-coated hTfR1 (Example 15, as in Example 1D) [panel hTfR1]
Protocol: as §3

[7] = biological target: T2, recombinant human transferrin receptor …; assay: ELISA, purified VNAR monomer on plate-adsorbed rhTfR-1, HRP anti-FLAG [panel HUMAN TfR BINDING]
Protocol: (§4) VNARs were purified from 500 mL bacterial cultures which were grown in auto-induction medium (Novagen) and periplasmic fractions were extracted by osmotic shock by resuspending bacteria in TES buffer (50 mM Tris, 1 mM EDTA, 20% Sucrose) mixed with an equal volume of TES diluted 1:5 in water. After 30 minutes on ice, lysates were clarified by centrifugation and the salt concentrations were adjusted to 500 mM NaCl and 10 mM imidazole in 1×PBS. Periplasmic extracts were then purified with Nickel-Sepharose resin (Qiagen), washed in 1×PBS, 10 mM imidazole, 500 mM NaCl, and then eluted in 1×PBS, 500 mM imidazole, 500 mM NaCl. The purified protein was then buffer-exchanged against PBS and concentrated by centrifugation with Vivaspin 20 filters (Sartorius, MWCO 5000). Endotoxin was removed using VivaPure Q mini column (Sartorius) and the protein was sterile filtered (0.22 μm). After estimating the protein concentration using Bradford reagent (Pierce), the purified protein was stored in frozen aliquots. EC50 binding curves of purified VNAR monomers to immobilized to human or mouse TfR-1 ([…]) were determined by standard protein ELISA an HRP-conjugate anti-FLAG M2 antibody. For pH binding sensitivity testing, purified monomer was bound at pH7 and then washed 3 times for 3 min at either pH5.2 or pH7.2.

[8] = biological target: T1, recombinant mouse transferrin receptor …; assay: ELISA, monomer bound at pH 7 to rmTfR-1, washed 3 x 3 min at pH 7.2 or pH 5.2, HRP anti-FLAG [panel VNAR H11 on mTfR-1]
Protocol: as §4

[9] = biological target: T1, recombinant mouse transferrin receptor …; assay: ELISA, monomer bound at pH 7 to rmTfR-1, washed 3 x 3 min at pH 7.2 or pH 5.2, HRP anti-FLAG [panel VNAR C11 on mTfR-1]
Protocol: as §4

[10] = biological target: T2, recombinant human transferrin receptor …; assay: ELISA, monomer bound at pH 7 to rhTfR-1, washed 3 x 3 min at pH 7.2 or pH 5.2, HRP anti-FLAG [panel VNAR C11 on hTfR-1]
Protocol: as §4

[11] = biological target: T1, recombinant mouse transferrin receptor …; assay: ELISA, purified VNAR monomer on plate-adsorbed rmTfR-1, HRP anti-FLAG [panel MOUSE TfR BINDING]
Protocol: as §4

[12] = biological target: T2, recombinant human transferrin receptor …; assay: ELISA, monomer bound at pH 7 to rhTfR-1, washed 3 x 3 min at pH 7.2 or pH 5.2, HRP anti-FLAG [panel VNAR G02 on hTfR-1]
Protocol: as §4

[13] = biological target: T1, recombinant mouse transferrin receptor …; assay: ELISA, monomer bound at pH 7 to rmTfR-1, washed 3 x 3 min at pH 7.2 or pH 5.2, HRP anti-FLAG [panel VNAR G02 on mTfR-1]
Protocol: as §4

T1 sequence (Q62351 89-763): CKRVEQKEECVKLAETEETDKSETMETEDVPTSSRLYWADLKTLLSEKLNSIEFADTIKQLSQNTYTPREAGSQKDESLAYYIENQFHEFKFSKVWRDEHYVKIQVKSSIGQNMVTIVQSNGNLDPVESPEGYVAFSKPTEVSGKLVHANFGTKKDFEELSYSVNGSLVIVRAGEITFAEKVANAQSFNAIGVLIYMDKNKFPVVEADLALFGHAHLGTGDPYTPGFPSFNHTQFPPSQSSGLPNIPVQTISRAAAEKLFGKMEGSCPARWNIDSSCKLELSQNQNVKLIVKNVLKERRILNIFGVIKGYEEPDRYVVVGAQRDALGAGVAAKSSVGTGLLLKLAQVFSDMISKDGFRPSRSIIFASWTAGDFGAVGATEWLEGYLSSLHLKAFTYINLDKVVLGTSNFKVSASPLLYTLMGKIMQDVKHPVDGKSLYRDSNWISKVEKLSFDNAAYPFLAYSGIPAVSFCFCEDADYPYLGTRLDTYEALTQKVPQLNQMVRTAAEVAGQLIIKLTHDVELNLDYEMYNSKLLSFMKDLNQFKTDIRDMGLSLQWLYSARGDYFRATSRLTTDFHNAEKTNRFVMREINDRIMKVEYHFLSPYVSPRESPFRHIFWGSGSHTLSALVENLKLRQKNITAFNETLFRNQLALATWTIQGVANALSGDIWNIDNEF
T2 sequence (P02786 89-760): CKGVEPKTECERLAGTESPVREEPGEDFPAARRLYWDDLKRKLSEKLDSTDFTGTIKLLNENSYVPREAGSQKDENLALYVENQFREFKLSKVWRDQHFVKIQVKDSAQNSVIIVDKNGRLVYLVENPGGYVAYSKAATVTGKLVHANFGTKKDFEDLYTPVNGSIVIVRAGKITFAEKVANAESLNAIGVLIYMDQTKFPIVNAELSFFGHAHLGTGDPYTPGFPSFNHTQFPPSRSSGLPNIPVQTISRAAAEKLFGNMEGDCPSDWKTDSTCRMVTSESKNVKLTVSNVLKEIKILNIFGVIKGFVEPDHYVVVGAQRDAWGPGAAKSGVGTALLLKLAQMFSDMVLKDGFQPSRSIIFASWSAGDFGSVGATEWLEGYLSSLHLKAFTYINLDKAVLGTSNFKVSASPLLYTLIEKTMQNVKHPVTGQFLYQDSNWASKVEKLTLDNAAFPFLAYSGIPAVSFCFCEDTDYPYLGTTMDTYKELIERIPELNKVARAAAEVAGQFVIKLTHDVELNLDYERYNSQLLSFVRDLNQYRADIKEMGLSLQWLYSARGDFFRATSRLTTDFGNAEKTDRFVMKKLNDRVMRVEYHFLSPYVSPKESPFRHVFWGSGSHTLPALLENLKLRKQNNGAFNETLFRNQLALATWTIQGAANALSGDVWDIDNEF

B1: VNAR H01 (VNAR)
VNAR: ARVDQTPQTITKETGESLTINCVLRDSNCALSSTYWYRKKSGSTKEESISKGGRYVETVNSGSKSFSLRINDLTVEDSGTYRCNVWHDLVWSVCTTDVYGGGTVVTVNA
notes: Shark VNAR single domain; not shown: FLAG tag of the pOsD2 vector
B1: binds [1].

B2: VNAR A07 (VNAR)
VNAR: ARVDQTPQTITKEEGESLTINCVLRDSSSALASTSWYRKKSGSTREETISKGGRYVETVNSGSKSFSLRINDLTVEDSGTYRCNVYELVEDTSAYEIGVDVYGDGTAVTVNA
notes: Shark VNAR single domain; also called clone A07; not shown: FLAG tag of the pOsD2 vector
B2: binds [1]; binds [2].

B3: F02-hFc (bivalent F02 VNAR-hFc fusion protein) (Fc fusion)
chain: ARVDQTPQTITKETGESLTINCVLRDNDCTLSSTHWYRKKSGSTNEERISKGGRYVETVNSGSKSFSLRINDLTVEDSGTYRCNVYAMTRNWWCDVYGGGTVVTVNAASGAGGGGS
notes: VNAR fused to the N-terminus of the Fc; bivalent, about 75 kDa; also called F02-Fc; F02 Fc; not shown: human IgG1-Fc region (CH2 and CH3 domains) from a modified pFUSE-hIgG1e3-Fc2 plasmid
For B3, the EC50 [3] was 34.2 nM, the EC50 [4] was 34.3 nM and the binding result [5] was “no binding (tested: 10^-6 M)”. The “EC50 (read off the curve)” value [6] was roughly 20 nM.

B4: VNAR H11 (VNAR)
VNAR: ARVDQTPQTITKETGESLTINCVLRDNDCALSSTYWYRKKSGSTNEERMTKGGRYVETVNSGSKSFSLRINDLTVEDSGTYRCNVYGLVDCASGMNWIDVYGGGTVVTVNA
notes: as for B1
B4: binds [7]; binds [8].

B5: VNAR C02 (VNAR)
VNAR: ARVDQTPQTITKETGESLTINCVLRDNDCALSSTYWYRKKSGSTNEESISKGGRYVETVNSGSKSFSLRINDLTVEDSGTYRCNVYQPPSTESLYWCDVYGGGTAVTVNA
notes: as for B1
B5: binds [1]; binds [2].

B6: VNAR C11 (VNAR)
VNAR: ARVDQTPQTITKETGESLTINCVLRDKDCALSSTSWYRKKSGSTNEESISKGGRYVETVNSGSKSFSLRINDLTVEDSGTYRCNVYARPRPDNLNWCDVYGGGTAVTVNA
notes: as for B1
B6: binds [9]; binds [10].

B7: VNAR A03 (VNAR)
VNAR: ARVDQTPQTITKETGESLTINCVLRDRDCALSSTHWYRKKSGSTNEESIPKGGRYVETVNSGSKSFSLRINDLTVEDSGTYRCNVYSLTANWWCDVYGGGTVVTVNA
notes: as for B1
B7: binds [7]; binds [11].

B8: H01-Fc (bivalent VNAR-Fc fusion protein) (Fc fusion)
chain: ARVDQTPQTITKETGESLTINCVLRDSNCALSSTYWYRKKSGSTKEESISKGGRYVETVNSGSKSFSLRINDLTVEDSGTYRCNVWHDLVWSVCTTDVYGGGTVVTVNAASGAGGGGS
notes: VNAR fused to the N-terminus of the Fc; bivalent; not shown: human IgG1-Fc region (CH2 and CH3 domains) from a modified pFUSE-hIgG1e3-Fc2 plasmid
B8 was tested, and the binding result [5] was “no binding (tested: 10^-6 M)” and the “EC50 (read off the curve)” value [6] was roughly 8 nM.

B9: VNAR G02 (VNAR)
VNAR: ARVDQTPQTITKETGESLTINCVLRDRDCALSSTHWYRKKSGSTNEESISKGGRYVETVDSGSKSFSLRINDLTVEDSGTYRCNVYQSPVGRRWWCDVYGGGTVVTVNA
notes: as for B1
B9: binds [12]; binds [13].
